Series [1] addresses S-tagged RSP3_(1–160) (Chlamydomonas reinhardtii) (UniProt P12759). The series is described as follows: pull-down.
Series [2] concerns the molecule itself. The series is described as follows: cross-linking.
Series [3] concerns the molecule itself. The series is described as follows: cross-linking. The source holds these as a separate data set.

Like-named read-outs stand apart in the source and are kept apart here.

Broadly, the stoichiometry N is a count of units in the complex or per binding partner.

In turn, His-tagged LC8 (natural protein) had a stoichiometry N (LC8 per RSP3 (1–160)) in series [1] of 3.

B1: RSP3_(1–170)-Cys (domain or fragment, Chlamydomonas reinhardtii, UniProt P12759 1-170, looked up)
chain: MVQAKAQQQLYTHAAEPKAVQQRRAKYREDETTQTLPTANIMFDRRVVRGNTYAARILPADATQTQTKGPSPASTKKRTTRTLPPRTPEAVDGRRHIDIQTDVYLEELTDTVPEADTSTQTDAFLDRPPTPLFVPQKTGTDAITQIENGDLFDFDFEVEPILEVLVGKVL
On to B1, for which the “stoichiometry N” value in the series “cross-linking [2]” worked out at 2.

B2: RSP3_(1–170)-HAHis (domain or fragment, Chlamydomonas reinhardtii, UniProt P12759 1-170, looked up)
chain: B1 chain
Turning to B2, the “stoichiometry N” value in “cross-linking [3]” stood at 2.

The record behind these values is PMC3392930 (The Journal of Cell Biology, 2012).
